Experimental data reported in patent US20260137802A1 (CRISPR THERAPEUTICS, published 2026).

B1: P-0010 (Fc fusion)
chain: QVQLVESGGGLVQAGGSLRLSCVASGRTFSSYAMGWFRQGPGKEREFAAAILSNGLTTYYADSVKGRFTISRDNAKDTVYLQMNSLKPEDTANYYCAAAFTPEFRDGGIWDDASVDYWGQGTQVTVSS
notes: Any second Fc chain without VHH is not described in the text; also called monovalent form of P10; not shown: Fc fragment
B2: P-0027 (Fc fusion)
chain: EVQLVESGGGLVRAGGSLRLSCAASGRTTFSTYWLGWFRQAPGKNREFVAAISWSAGMAYYQDSKGRFTISRDNTKNTAYLQMNSLQPEDTAVYYCAAGRFHPIRVDTALYWAQGTQVTVSS
notes: Any second Fc chain without VHH is not described in the text; also called monovalent form of P27; not shown: Fc fragment
B3: P-0032 (Fc fusion)
chain: QVQLVESGGGLVQAGDSLRLSCAASGRTFSSYAMGWFRQAPGKEREFVASITSSGLVAYYGDSVEARFTISRDNAKNTVYLQMDSLKPEDTAVYYCAARQYVGSGSYYLKKEGGYEYWGPGTQVTVSS
notes: Any second Fc chain without VHH is not described in the text; also called monovalent form of P32; not shown: Fc fragment
B4: P-0053 (Fc fusion)
chain: B1 chain
notes: also called P53; bivalent form of P10; not shown: Fc fragment
B5: P-0059 (Fc fusion)
chain: QVQLVESGGGLVQAGGSLRLSCTASGDTFSSYSMGWFRQGPGKEREFVGGIRWSGGTTYYADSVKGRFTISRDNAKNTVYLQMNSLKREDTAVYYCAAVRRRWLIWQEEEYDYWGQGTLVTVSS
notes: also called P59; bivalent form of P12; not shown: Fc fragment
B6: P-0060 (Fc fusion)
chain: B2 chain
notes: also called P60; bivalent form of P27; not shown: Fc fragment
B7: P-0054 (Fc fusion)
chain: QVHLVESGGGLVQAGGSLGLSCAASGHTFSNYAMGWFRQAPGKEREFVAAISWSGGSTLYADSVKGRFTISRDNGENTVYLQMNSLKPEDTAVYYCALDSTGVYGTGYVSSRKGRYEYWGQGTLVTVSS
notes: also called P54; bivalent form of P29; not shown: Fc fragment
B8: P-0055 (Fc fusion)
chain: EVQLVESGGGLVRAGGSLRLSCAASGRTFTYDARAWFRQAPGKEREFVAAISWSGGSTYYPNSMKGRFTISRDNAKNTVYLQMNSLKPEDTAVYYCAADESFPAYYSDYALYRYWGQGTLVTVSS
notes: also called P55; bivalent form of P31; not shown: Fc fragment
B9: P-0057 (Fc fusion)
chain: B3 chain
notes: the alignment instead labels 'P35/P57' and 'P32/P56'; also called P57; not shown: Fc fragment
B10: P-0056 (Fc fusion)
chain: QVQLVESGGGLVQAGGSLRLSCAASGGTFSIYPVGWFRQAPGKQREFVAAIGWSASGTYYGDSVEGRFTVSRDNARSTVYLRMSSLKPDDTAVYYCAAASGSNWRLGAIDEYDSWGQGTQVTVSS
notes: the alignment instead labels 'P35/P57' and 'P32/P56'; also called P56; not shown: Fc fragment
B11: P-0058 (Fc fusion)
chain: QVQLVESGGGLVQAGDSLRLSCAVSGRTLSNYFMAWLRQAPGKEREFVAAIHWSLGSTYYQDPVKGRFTISRDKAKNTVYLQMNTLKPEDTATYICAAGQHLSGLGGSAWSIEGDYWGQGTQVTVSS
notes: also called P58; bivalent form of P37; not shown: Fc fragment
B12: P-0072 (Fc fusion)
chain: EVQLVESGGGLVQAGGSLRLSCAASGRTSGSYVMGWFRQAPGKEREFVAAISWSAGMTYYADSVKGRFTISRDNAKNTVYLQMNSLKPEDTAVYYCAADQRGVPAYYSDYALYDYWGQGTQVTVSS
notes: also called P72; bivalent form of P38; not shown: Fc fragment
B13: P-0012 (Fc fusion)
chain: B5 chain
notes: Any second Fc chain without VHH is not described in the text; also called monovalent form of P12; not shown: Fc fragment
B14: P-0029 (Fc fusion)
chain: B7 chain
notes: Any second Fc chain without VHH is not described in the text; also called monovalent form of P29; not shown: Fc fragment
B15: P10 (VHH)
VHH: B1 chain
notes: also called P10/P53; anti-CD117 VHH P10
B16: P27 (VHH)
VHH: B2 chain
notes: also called P27/P60; anti-CD117 VHH P27
B17: P31 (VHH)
VHH: B8 chain
notes: also called P31/P55; anti-CD117 VHH P31
B18: P32 (VHH)
VHH: B3 chain
notes: also called anti-CD117 VHH P32
B19: P35 (VHH)
VHH: B10 chain
notes: also called anti-CD117 VHH P35
B20: P38 (VHH)
VHH: B12 chain
notes: also called P38/P72; anti-CD117 VHH P38

How the values were obtained:
[1] = biological target: T1, human CD117 ectodomain (human, UniProt P10721 26-524, biotinylated (BirA co-expression) where captured on streptavidin biosensors); assay: ELISA, human CD117, monovalent Fc fusion
T1 construct: extracellular domain; also called cKIT; full length AviTagged CD117 ectodomain; not shown: C-terminal AviTag or His tag

[2] = biological target: T2, human CD117 on cells (SKMEL-3 cells, CD34+ HSC) (human, UniProt P10721 26-976); assay: flow cytometry, CD34+ HSC, monomeric Fc
T2 construct: whole, on cells; also called CD117 on cell surfaces; CD117+ cells

[3] = biological target: T2, human CD117 on cells (SKMEL-3 cells, …); assay: flow cytometry, skMEL-3 cells, monomeric Fc
[4] = biological target: T1, human CD117 ectodomain; assay: BLI (Octet), biotinylated ectodomain on SA biosensor, 1:1 global fit, monomeric Fc
From the text: (§1) Pre-equilibrated streptavidin biosensors (SA, from Sartorius) were coated with biotinylated CD117 ectodomain by dipping the biosensors into wells containing an optimized dilution of human or cyno CD117 ectodomain. After re-equilibrating the biosensor tips in assay buffer, the biosensors were dipped into supernatant containing the VHH antibodies to allow association between the antibodies and the CD117 ectodomain. Finally, the biosensors were dipped into the assay buffer. The VHH antibodies disassociated from the CD117 ectodomain if association occurred. The association and dissociation of each VHH antibody was characterized qualitatively to identify VHHs that could bind both human and cyno CD117 ectodomains.
(§2) For example, kinetics parameters of the top VHH antibodies for binding to human CD117 and cynomolgus monkey CD117 ectodomain were obtained from the Octet® analysis by Biolayer Interferometry as described above. A minimum of three concentrations of purified VHH antibodies were tested per ectodomain target. The Octet® software was used to perform a global kinetic fit across all concentrations using a 1:1 binding model. This allowed determination of the kinetic parameters, association rate (kₒₙ), dissociation rate (koff) and equilibrium constant (KD) for the 9 antibodies of interest. Total chi-squared (X²) was also examined to determine the goodness of fit for the software's kinetic model.

[5] = biological target: cynomolgus monkey CD117 ectodomain (cynomolgus monkey); assay: as above
[6] = biological target: cynomolgus monkey CD117 ectodomain (cynomolgus monkey); assay: BLI (Octet), biotinylated ectodomain on SA biosensor, 1:1 global fit, bivalent Fc
[7] = biological target: T2, human CD117 on cells (SKMEL-3 cells, …); assay: flow cytometry, CD34+ HSC, bivalent Fc
[8] = biological target: T1, human CD117 ectodomain; assay: ELISA, human CD117, bivalent Fc fusion
[9] = biological target: T1, human CD117 ectodomain; assay: BLI (Octet), biotinylated ectodomain on SA biosensor, 1:1 global fit, bivalent Fc
From the text: as §1, §2

[10] = biological target: T2, human CD117 on cells (SKMEL-3 cells, …); assay: flow cytometry, skMEL-3 cells, bivalent Fc
[11] = biological target: T3, truncated CD117 ectodomain, Domain 1 (UniProt P10721 26-112, limits assumed, biotinylated); assay: BLI, truncated ectodomain on SA biosensor
T3 construct: domain: Domain 1; not shown: AviTag
Method: To identify the approximate binding epitopes of the VHH antibodies, truncated ectodomains were expressed as fusion polypeptides with an AviTag. Additionally, biotin is added to the protein during expression to allow capture of the material onto Streptavidin-coated (SA) biosensors. SA biosensors (Sartorius) were incubated with one of the truncated ectodomains. Full length CD117 ectodomain was used as a control. […] Except for P29 and P37, all others bind Domains 1-2 and Domains 1-3. Except for P37, all others bind Domains 1-4.

T1 sequence (P10721 26-524): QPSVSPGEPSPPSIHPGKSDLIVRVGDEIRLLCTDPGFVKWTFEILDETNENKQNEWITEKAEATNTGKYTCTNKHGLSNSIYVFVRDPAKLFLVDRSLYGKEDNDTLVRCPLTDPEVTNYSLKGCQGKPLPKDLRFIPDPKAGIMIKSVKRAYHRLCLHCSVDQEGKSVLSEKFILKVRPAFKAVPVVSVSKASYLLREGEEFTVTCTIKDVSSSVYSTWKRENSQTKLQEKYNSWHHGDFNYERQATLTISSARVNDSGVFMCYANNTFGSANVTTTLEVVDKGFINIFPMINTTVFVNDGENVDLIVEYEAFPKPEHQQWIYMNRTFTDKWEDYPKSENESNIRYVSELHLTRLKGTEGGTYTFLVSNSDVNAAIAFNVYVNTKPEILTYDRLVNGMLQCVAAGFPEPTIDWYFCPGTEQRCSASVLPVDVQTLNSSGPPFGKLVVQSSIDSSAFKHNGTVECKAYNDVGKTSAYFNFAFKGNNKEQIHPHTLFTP
T3 sequence (P10721 26-112 limits assumed): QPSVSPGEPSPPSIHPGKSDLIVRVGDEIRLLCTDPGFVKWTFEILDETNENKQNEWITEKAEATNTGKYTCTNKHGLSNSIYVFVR
T2 sequence (P10721 26-976): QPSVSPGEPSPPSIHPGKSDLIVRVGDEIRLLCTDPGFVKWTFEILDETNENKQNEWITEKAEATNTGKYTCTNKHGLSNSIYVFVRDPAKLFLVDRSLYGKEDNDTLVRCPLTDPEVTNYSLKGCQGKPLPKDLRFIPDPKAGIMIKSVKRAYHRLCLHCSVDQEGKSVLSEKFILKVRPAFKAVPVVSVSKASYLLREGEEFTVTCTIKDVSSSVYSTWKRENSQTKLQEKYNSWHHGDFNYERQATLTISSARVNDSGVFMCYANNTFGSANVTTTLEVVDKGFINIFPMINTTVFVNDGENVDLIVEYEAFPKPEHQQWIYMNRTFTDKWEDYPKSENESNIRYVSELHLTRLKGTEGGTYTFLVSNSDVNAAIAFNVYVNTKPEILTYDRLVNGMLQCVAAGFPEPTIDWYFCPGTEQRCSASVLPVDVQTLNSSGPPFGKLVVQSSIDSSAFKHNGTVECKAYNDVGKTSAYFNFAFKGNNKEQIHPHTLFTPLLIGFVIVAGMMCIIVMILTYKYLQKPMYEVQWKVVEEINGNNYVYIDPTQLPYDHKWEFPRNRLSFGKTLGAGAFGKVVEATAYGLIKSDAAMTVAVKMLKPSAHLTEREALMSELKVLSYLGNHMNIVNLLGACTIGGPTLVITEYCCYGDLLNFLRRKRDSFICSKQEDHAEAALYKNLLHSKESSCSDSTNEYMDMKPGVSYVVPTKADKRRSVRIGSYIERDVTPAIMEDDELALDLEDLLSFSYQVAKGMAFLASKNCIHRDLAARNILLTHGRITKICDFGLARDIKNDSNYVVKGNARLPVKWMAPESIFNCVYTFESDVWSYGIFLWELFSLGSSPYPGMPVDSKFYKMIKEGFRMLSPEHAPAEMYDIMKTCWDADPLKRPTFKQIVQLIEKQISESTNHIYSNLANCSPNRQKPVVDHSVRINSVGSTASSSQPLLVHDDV

Row | Kd [6] | EC50 [7] | Kd [8] | Kd [9] | EC50 [10] | binding result [11] | further results | Binder
1 | – | – | – | – | – | – | Kd [1]: 0.28 nM; EC50 [2]: 2 nM; EC50 [3]: 2 nM; Kd [4]: 16.5 nM; Kd [5]: 54.9 nM | B1
2 | – | – | – | – | – | – | Kd [1]: 1.32 nM; EC50 [2]: 10 nM; EC50 [3]: 10 nM; Kd [4]: 44.7 nM; Kd [5]: 8.11 nM | B2
3 | – | – | – | – | – | – | Kd [1]: 1.49 nM; Kd [4]: 1.86 nM; Kd [5]: 8.01 nM | B3
4 | 0.00136 nM | 1 nM | 0.16 nM | < 1 pM | 1 nM | – | – | B4
5 | 0.0112 nM | 50 nM | 0.06 nM | 44.6 pM | 50 nM | – | – | B5
6 | 2.16 nM | 2 nM | 0.14 nM | 240 pM | 2 nM | – | – | B6
7 | 19.8 nM | > 50 nM | 0.54 nM | 6.82 pM | > 50 nM | – | – | B7
8 | 0.961 nM | 1 nM | 0.22 nM | 1.24 pM | 1 nM | – | – | B8
9 | 1.7 nM | – | 0.21 nM | 2.15 pM | – | – | – | B9
10 | 0.647 nM | 10 nM | 0.36 nM | 602 pM | 3 nM | – | – | B10
11 | 0.00166 nM | 50 nM | 0.33 nM | 1.89 pM | 3 nM | – | – | B11
12 | 0.0112 nM | 2 nM | 0.21 nM | 1.26 pM | 1 nM | – | – | B12
13 | – | – | – | – | – | – | Kd [1]: 1.04 nM; EC50 [2]: > 10 nM; EC50 [3]: > 10 nM; Kd [4]: 49.2 nM | B13
14 | – | – | – | – | – | – | Kd [1]: 2.48 nM; EC50 [2]: 50 nM; EC50 [3]: > 50 nM; Kd [4]: 37.4 nM | B14
15 | – | – | – | – | – | no binding | – | B15
16 | – | – | – | – | – | no binding | – | B16
17 | – | – | – | – | – | no binding | – | B17
18 | – | – | – | – | – | no binding | – | B18
19 | – | – | – | – | – | no binding | – | B19
20 | – | – | – | – | – | no binding | – | B20
